Results as given in patent publication US5777073.
Like-named read-outs stand apart in the source and are kept apart here.

Legend:
[1] = molecular target: CRF receptors on rat anterior pituitary cells (rat)
[2] = molecular target: CRF receptors on rat anterior pituitary cells (rat); remark: listed apart in the source
[3] = molecular target: CRF receptors on rat anterior pituitary cells (rat); remark: listed apart in the source
[4] = molecular target: CRF receptors on rat anterior pituitary cells (rat); remark: listed apart in the source
[5] = molecular target: CRF receptors on rat anterior pituitary cells (rat); remark: listed apart in the source
[6] = molecular target: CRF receptors on rat anterior pituitary cells (rat); remark: listed apart in the source
[7] = molecular target: CRF receptors on rat anterior pituitary cells (rat); remark: listed apart in the source
[8] = molecular target: CRF receptors on rat anterior pituitary cells (rat); remark: listed apart in the source
[9] = molecular target: CRF receptors on rat anterior pituitary cells (rat); remark: listed apart in the source
[10] = molecular target: CRF receptors on rat anterior pituitary cells (rat); remark: listed apart in the source
[11] = molecular target: CRF receptors on rat anterior pituitary cells (rat); remark: listed apart in the source
[12] = molecular target: CRF receptors on rat anterior pituitary cells (rat); remark: listed apart in the source
[13] = molecular target: CRF receptors on rat anterior pituitary cells (rat); remark: listed apart in the source
[14] = molecular target: CRF receptors on rat anterior pituitary cells (rat); remark: listed apart in the source
[15] = molecular target: CRF receptors on rat anterior pituitary cells (rat); remark: listed apart in the source
[16] = molecular target: CRF receptors on rat anterior pituitary cells (rat); remark: listed apart in the source
[17] = molecular target: CRF receptors on rat anterior pituitary cells (rat); remark: listed apart in the source
[18] = molecular target: CRF receptors on rat anterior pituitary cells (rat); remark: listed apart in the source
[19] = molecular target: CRF receptors on rat anterior pituitary cells (rat); remark: listed apart in the source
[20] = molecular target: CRF receptors on rat anterior pituitary cells (rat); remark: listed apart in the source
[21] = molecular target: CRF receptors on rat anterior pituitary cells (rat); remark: listed apart in the source
[22] = molecular target: CRF receptors on rat anterior pituitary cells (rat); remark: listed apart in the source
[23] = molecular target: CRF receptors on rat anterior pituitary cells (rat); remark: listed apart in the source
[24] = molecular target: CRF receptors on rat anterior pituitary cells (rat); remark: listed apart in the source
[25] = molecular target: CRF receptors on rat anterior pituitary cells (rat); remark: listed apart in the source
[26] = molecular target: CRF receptors on rat anterior pituitary cells (rat); remark: listed apart in the source
[27] = molecular target: CRF receptors on rat anterior pituitary cells (rat); remark: listed apart in the source
[28] = molecular target: CRF receptors on rat anterior pituitary cells (rat); remark: listed apart in the source
[29] = molecular target: CRF receptors on rat anterior pituitary cells (rat); remark: listed apart in the source
[30] = molecular target: CRF receptors on rat anterior pituitary cells (rat); remark: listed apart in the source
[31] = molecular target: CRF receptors on rat anterior pituitary cells (rat); remark: listed apart in the source
[32] = molecular target: CRF receptors on rat anterior pituitary cells (rat); remark: listed apart in the source
[33] = molecular target: CRF receptors on rat anterior pituitary cells (rat); remark: listed apart in the source
[34] = molecular target: CRF receptors on rat anterior pituitary cells (rat); remark: listed apart in the source
[35] = molecular target: CRF receptors on rat anterior pituitary cells (rat); remark: listed apart in the source
[36] = molecular target: CRF receptors on rat anterior pituitary cells (rat); remark: listed apart in the source
CRF-RA = assay: binding assay
hCRF-RA1 (human) = hCRF-RA1 (human) (UniProt P34998); assay: radioligand binding assay

(bicyclo 20-23, 30-33) D-Phe^12, Nle^21,38, D-Ala^22, LyS^23,33, Glu^30, D-His^32 !-r/hCRF(12-41) (peptide)
in vitro biopotency: inhibition of ACTH secretion (times the Standard) [1]: 8.61

(bicyclo 20-23, 30-33) D-Phe^12, Nle^21,38, Lys^23,33, Glu^30 !-r/hCRF(12-41) (peptide)
in vitro biopotency: inhibition of ACTH secretion (times the Standard) [2]: 8.3

(cyclo 29-32) D-Leu^11, Nle^17, Glu^29, D-Ala^31, Lys^32 !-Sauvagine (11-40) (peptide)
in vitro biopotency: inhibition of ACTH secretion (times the Standard) [3]: 15

(cyclo 29-32) D-Leu^11, Nle^17, Glu^29, Lys^32 !-sauvagine(11-40) (peptide)
in vitro biopotency: inhibition of ACTH secretion (times the Standard) [4]: 22

(cyclo 30-33) Ac-Asp^9, D-Phe^2, Nle^21,38, CML^27, Glu^30, D-His^32, Lys^33 -r/hCRF(9-41) (peptide)
in vitro biopotency: inhibition of ACTH secretion (times Peptide IV) [5]: 2.22

(cyclo 30-33) Ac-Asp^9, D-Phe^12, Nle^21,38, CML^27, Glu^30, Lys^33 !-r/hCRF(9-41) (peptide)
in vitro biopotency: inhibition of ACTH secretion (times Peptide IV) [6]: 1.2

(cyclo 30-33) Ac-Asp^9, D-Phe^12, Nle^21,38, Glu^30, Lys^33 !-r/hCRF(9-41) (peptide)
in vitro biopotency: inhibition of ACTH secretion (times the Standard) [7]: 172

(cyclo 30-33) Ac-D-Phe^12, Nle^21,38, CML^27, Glu^30, D-His^32, Lys^33 !-r/hCRF(12-41) (peptide)
in vitro biopotency: inhibition of ACTH secretion (times the Standard) [8]: 43

(cyclo 30-33) Ac-D-Phe^12, Nle^21,38, CML^27, Glu^30, Lys^33 !-r/hCRF(12-41) (peptide)
in vitro biopotency: inhibition of ACTH secretion (times Peptide IV) [9]: 1.65

(cyclo 30-33) Ac-D-Phe^12, Nle^21,38, Glu^30, D-His^32, Lys^33 !-r/hCRF(12-41) (peptide)
in vitro biopotency: inhibition of ACTH secretion (times Peptide IV) [10]: 1.24

(cyclo 30-33) Ac-D-Phe^12, Nle^21,38, Glu^30, Lys^33 !-r/hCRF(12-41) (peptide)
in vitro biopotency: inhibition of ACTH secretion (times the Standard) [7]: 36.5

(cyclo 30-33) Ac-Leu^10, D-Phe^12, Nle^21,38, Glu^30, Lys^33 !-r/hCRF(10-41) (peptide)
in vitro biopotency: inhibition of ACTH secretion (times the Standard) [7]: 34

(cyclo 30-33) Ac-Thr^11, D-Phe^12, CML^15,27, Nle^21,38, Glu^30, D-His^32, Lys^33 -r/hCRF(11-41) (peptide)
in vitro biopotency: inhibition of ACTH secretion (times Peptide IV) [11]: 1.11

(cyclo 30-33) Ac-Thr^11, D-Phe^12, CML^18,27, Nle^21,38, Glu^30, D-His^32, Lys^33 !-r/hCRF(11-41) (peptide)
in vitro biopotency: inhibition of ACTH secretion (times Peptide IV) [12]: 1.94

(cyclo 30-33) Ac-Thr^11, D-Phe^12, Nle^21,38, CML^27, Glu^30, D-His^32, Lys^33 !-r/hCRF(11-41) (peptide)
in vitro biopotency: inhibition of ACTH secretion (times Peptide IV) [13]: 1.4

(cyclo 30-33) Ac-Thr^11, D-Phe^12, Nle^21,38, Glu^30, D-His^32, Lys^33 !-r/hCRF(11-41) (peptide)
in vitro biopotency: inhibition of ACTH secretion (times Peptide IV) [14]: 3.08

(cyclo 30-33) Ac-Thr^11, D-Phe^12, Nle^21,38, Glu^30, Lys^33 !-r/hCRF(11-41) (peptide)
in vitro biopotency: inhibition of ACTH secretion (times the Standard) [7]: 64

(cyclo 30-33) D-Phe^12, CML^14, Nle^21,38, Glu^30, D-His^32, Lys^33 !-r/hCRF(12-41) (peptide)
in vitro biopotency: inhibition of ACTH secretion (times the Standard) [15]: 15

(cyclo 30-33) D-Phe^12, CML^15, Nle^21,38, Glu^30, D-His^32, Lys^33 !-r/hCRF(12-41) (peptide)
in vitro biopotency: inhibition of ACTH secretion (times the Standard) [16]: 20.3

(cyclo 30-33) D-Phe^12, CML^15, Nle^21,38, Glu^30, imBzlD-His^32, Lys^33 !-r/hCRF (12-41) (peptide)
in vitro biopotency: inhibition of ACTH secretion (times the Standard) [17]: 23.5

(cyclo 30-33) D-Phe^12, CML^19, Nle^21,38, Glu^30, D-His^32, Lys^33 !-r/hCRF(12-41) (peptide)
in vitro biopotency: inhibition of ACTH secretion (times the Standard) [18]: 4.5

(cyclo 30-33) D-Phe^12, Nle^18,21, Glu^30, D-Ala^32, Lys^33 !-Carp Urotensin I (12-41) (peptide)
in vitro biopotency: inhibition of ACTH secretion (times Peptide IV) [19]: 0.831

(cyclo 30-33) D-Phe^12, Nle^18,21, Glu^30, Lys^33 !-Sucker Urotensin I(12-41) (peptide)
in vitro biopotency: inhibition of ACTH secretion (times Peptide IV) [20]: 1.32

(cyclo 30-33) D-Phe^12, Nle^21,38, CML^27, Glu^30, D-His^32, Lys^33 !-r/hCRF(11-41) (peptide)
in vitro biopotency: inhibition of ACTH secretion (times Peptide IV) [21]: 1.26

(cyclo 30-33) D-Phe^12, Nle^21,38, CML^27, Glu^30, D-His^32, Lys^33 !-r/hCRF(12-41) (peptide)
in vitro biopotency: inhibition of ACTH secretion (times the Standard) [22]: 53.6

(cyclo 30-33) D-Phe^12, Nle^21,38, Glu^30, D-2Nal^32, Lys^33 !-r/hCRF(12-41) (peptide)
in vitro biopotency: inhibition of ACTH secretion (times the Standard) [23]: 18

(cyclo 30-33) D-Phe^12, Nle^21,38, Glu^30, D-Arg^32, Lys^33 !-r/hCRF(12-41) (peptide)
in vitro biopotency: inhibition of ACTH secretion (times the Standard) [24]: 60

(cyclo 30-33) D-Phe^12, Nle^21,38, Glu^30, D-Glu^32, Lys^33 !-r/hCRF(12-41) (peptide)
in vitro biopotency: inhibition of ACTH secretion (times the Standard) [25]: 10

(cyclo 30-33) D-Phe^12, Nle^21,38, Glu^30, D-His^32, Lys^33 !-r/hCRF(11-41) (peptide)
in vitro biopotency: inhibition of ACTH secretion (times Peptide IV) [26]: 0.78

(cyclo 30-33) D-Phe^12, Nle^21,38, Glu^30, D-His^32, Lys^33 !-r/hCRF(12-41) (peptide)
in vitro biopotency: inhibition of ACTH secretion (times the Standard) [27]: 80.3

(cyclo 30-33) D-Phe^12, Nle^21,38, Glu^30, D-His^32, Lys^33, CML^37 !-r/hCRF(12-41) (peptide)
in vitro biopotency: inhibition of ACTH secretion (times the Standard) [28]: 16

(cyclo 30-33) D-Phe^12, Nle^21,38, Glu^30, Lys^33 !-r/hCRF(9-41) (peptide)
in vitro biopotency: inhibition of ACTH secretion (times the Standard) [29]: 33.8

(cyclo 30-33) D-Phe^12, Nle^21,38, Glu^30, Lys^33 !-r/hCRF(10-41) (peptide)
in vitro biopotency: inhibition of ACTH secretion (times the Standard) [30]: 31.6

(cyclo 30-33) D-Phe^12, Nle^21,38, Glu^30, Lys^33 !-r/hCRF(11-41) (peptide)
in vitro biopotency: inhibition of ACTH secretion (times the Standard) [31]: 40.3

(cyclo 30-33) D-Phe^12, Nle^21,38, Glu^30, Lys^33 !-r/hCRF(12-41) (peptide)
intrinsic CRF activity [32]: < 3% | in vitro biopotency: inhibition of ACTH secretion (times the Standard) [33]: 33

(cyclo 30-33) D-Tyr^12, Glu^13, Lys^17,33, Nle^21,38, Glu^30, Asn^32, Arg^36 !-r/hCRF(12-41) (peptide)
in vitro biopotency: inhibition of ACTH secretion (times the Standard) [34]: 49

(cyclo 30-33) D-Tyr^12, Nle^21,38, Glu^30, Asn^32, Lys^33, Arg^36 !-r/hCRF (12-41) (peptide)
in vitro biopotency: inhibition of ACTH secretion (times the Standard) [35]: 79

(cyclo 30-33) D-Tyr^12, Nle^21,38, Glu^30, Lys^33 !-r/hCRF(12-41) (peptide)
in vitro biopotency: inhibition of ACTH secretion (times the Standard) [36]: 5.6 | Kd (CRF-RA): 2 nM

(cyclo 30-33) I^125 -D-Tyr^12, Glu^30, Lys^33, Nle^21,38 !-r/hCRF(12-41) (peptide)
Kd (hCRF-RA1 (human)): 2 nM
